The DeepSol protein solubility set

Experiment: soluble on expression in E. coli; label from the status in PepcDB or PDB records

Sequence	soluble on expression in E. coli
MSLPLPKAELHLHIEGTLEPELAFALAARNGVPLPYAHTDELRKAYQFDDLQSFLNLYYELMAVLRTEQDFEDLANAYLPRAAAQGVRHAEIFFDPQAHIARGVAMGTVVEGLWRALGRSTENHGVSTQLIMCFLRDESAESALETLEAAKPYLDRIIGIGLDSAEVGHPPAKFREVYEAAAALGLRRVAHAGEEGPPEYITEALDVLGVERIDHGLRCMEDDALVERLVRERVPLTLCPLSNVRLRAVDVLAEHPLPAMLDAGLLCTVNSDDPAYFGGYVADNFHAVRDALGLDQERMRELARNSFVASFLEHDEERRARYLAEVEAYDFPGEGHHHHHH	soluble
MSLPQFSVDLCLFDLDGTIVSTTTAAESAWKKLCRQHGVDPVELFKHSHGARSQEMMKKFFPKLDNTDNKGVLALEKDMADNYLDTVSLIPGAENLLLSLDVDTETQKKLPERKWAIVTSGSPYLAFSWFETILKNVGKPKVFITGFDVKNGKPDPEGYSRARDLLRQDLQLTGKQDLKYVVFEDAPVGIKAGKAMGAITVGITSSYDKSVLFDAGADYVVCDLTQVSVVKNNENGIVIQVNNPLTRDEGHHHHHH	soluble
MSLPVKNLRHLPKAHLHLHLEGAMRPATLTEFCERYKIKRPSDTRGKQFSNFAAFNEVYRAASDSIRTRQDLARVIQEVAEDAAKDGATWIEPAFDADRYTVLRADKSLRLFETPYEGWLFALKAARNASEKTGVGISFISAIDRTRPIDQANERAKLTTNLIASQKHQITAKNINGGEPYAGIIGLGLHGNEEGYPPEIFAEAFQIVTKKTEALSIPHAGEIAPTPGKGPESVEKAIDILSASRIQHGVLAIQDEVLIEKIKEKNICLDVCPSSNIQLSVFPNIQAHPLPLLIESGVSCSLGSDDPLLFGPSLLDEFELCREQMRLSDNTLAQLARNSFKYSGAPKKIVEQGLRDIDTWLNEGHHHHHH	soluble
MSLQDSLFQTETGFQPLAARMRPTSLEGYVGQAHLVGPGKPLRRAVEQGQLHSMILWGPPGVGKTTFARLLANVGDLSFETISAVLSGVKEIREVVERARNRKQSQGRDTLLFVDEVHRFNKSQQDAFLPHIEDGTFIFVGATTENPSFELNSALLSRTRVYVLKNLEAADIRRLLDSALESEQGFAGQLRVEESVLATMAEASGGDARRALNILEVAADLAEPDDDGNNRVTAQTLEQVLQTSLRRFDKGGDVFYDQISALHKSVRGSNPDGSLYWLCRMLDGGCDPLYVARRLVRIASEDIGNADPRALQITLQAWDAQERLGSPEGELALAQAVTYLALAPKSNAVYKAYNQCIADIRSDPDYEVPVHLRNAPTKLLKSMGHGEEYRYAHDEPDAYAAGEAYLPEAIYQRRYYQPVQRGLEIKLAEKRERLDSLDANSPKKREGHHHHHH	soluble
MSLQICQGNGEFVHLLENSKGSPESFASAYSQSMRLTNGEFLCYHISTDYKSISFYNFKNASDGRTIIIHLPAKLMHEHHTLVVEEQEGVIVVDVILESSAFLTMRLPLEYIFGIENVLDDNWLSMQSPYDFTVRRPHLLHKVSQDFFVVFLEDGGLLGLRQHNENYLEPLLFNDYSYIQTLTSMFSRKKKQPADRAVACLVIHDKYLVVLTRLCHLKIWDLGSFHLVQEYNLTENFNGTLETIEYESNGNYISTLNDVIVIYLPIGNGVFKFGRLSFTNDGERKPTFNMFSSIDANMKKSTIWSFVDMKLTDPLELNFTSTTFNLIILWKSGSNSKLQILNIKDSSFSDFEWIEASNKSLQNFQTEEISALIQNYDFDKALYKLKSHYSDMTFKEADSLLLANNIVYSENNETQQQQYLANLDTLLRDINNNHSEIASFTIYKNDMILVNTHNLYNHGFYKINSSLENIYFNLSEITEGHHHHHH	soluble
MSLQIVFPTPNQVEMQTGNLILGKKVSMYAEDTTAFYLNLFREEVLSHTPIKWQKKESKADICWITDSSLPPEGYRIKIHPQQMVISASDKGGFTYAVQTLRQWVAGSAGSITFACASVTDYPRTQWRCFLLDSGRQFQKITTIRKYIDMASLLKMNYFHWHLTEGLGWRIEIKQYPHLTRTGGSVGKGEEQQGFYTQEEIRDIIEYARQRNITIVPEIDMPGHAEAALSAYPELGCFGLPVEIPQSGFTQNIFCAGKDGTLRFLKNVLDEVCALFPSPYIHLGGDEAPKGNWDQCPDCRKRITTEGLKDSHDLQLWFSAQMANYLKSKGRKAIFWGDVVYHDGYPLPDNTVIQWWNYRGHKDLALRNAVKHHYPVICSSNYYTYLNFPVTPWKGYTEARTFDLKDVYLNNPSDKAISEKNPLILGMSCALWTDDGVTERMIDRRLFPRILALSEQMWHEGEALDFDRFYRNILHRKAWFEEAGFEFGPALKEDVTKDYKWDEGHHHHHH	soluble
MSLQKLAVFDFDSTLVNAETIESLARAWGVFDEVKTITLKAMNGETDFHKSLILRVSKLKNMPLKLAKEVCESLPLFEGALELVSALKEKNYKVVCFSGGFDLATNHYRDLLHLDAAFSNTLIVENDALNGLVTGHMMFSHSKGEMLLVLQRLLNISKTNTLVVGDGANDLSMFKHAHIKIAFNAKEVLKQHATHCINEPDLALIKPLIEGHHHHHH	soluble
MSLQMDQYLAQPLMIQEAQLVTIASGTTLSRELAQLTEQAWIQDSFVAEWVRRFHPELSKIKAGTYKLQPDMSLEQALALLVSGKEHQFSITFVEGSRFQEWRDILASNENITQQLTGLTEIDIAKALGIEHEKLEGLFLAETYHFTKGTSDVEILKRANQKLEKFLQVTWEHRQEGLPIQTPYEALILASIIEKETSIAEERERIAAVFINRLNKRMRLQTDPTVIYGMGETYDGNIRKKDLRARTPYNTYVINGLPPTPIAMPGEASIYAALNPEQSDYLYFVASGEGGHNFSKTLADHNRAVRAYLKKLRTKQEGHHHHHH	soluble
MSLQQGDRVPAGLTLTNQAGESFRIGDYRGQTLVLTFIYTRCPLPTYCPLMSKQFAALQPQLRERYGEEAQLLSISFDPAYDTPQVLREYASKYTDRLDTWTFATGDSSQVERATGLFGVHAQKTGSEEITHNLTTALIGSEGHVRRLWRGNDWTPEDVRQAVAQVAEASEGHHHHHH	soluble
MSLQRLNVEFRSEGVALRGWLYLPEARAERPAIVMTHGFSGVKEQYLDRYAEVFAAAGFVVLLYDHPNFGDSDGEPRQEIDPVMQRRGYRDAITWLGAQARVDASRIGIWGTSYSGGHVLEVAALDRRVKCVVAQVPTVSGHASALRRTRAEQLPALLASFDADRQRRFEGLPPALLPAVAASPDEPCAMAGADAHRFFTDSAALAPNWCNRVTLRSAELARENEPGIHIGRISPTPLLMIVADRDLLTPTDLCLEAYQRALPPKRLLMLAGGHFTPYIEHFDATSQAAADWFVRHLGEGGEQPATVVEEGGSHHHHHH	soluble
MSLQTCVLHRLSLPLKFPMRTAHGHIREKQAILVQLVDADGIEGWSECVALAEPTYTEECTDTAWVMLVHHLVPRFARWLRAASQDQDVDPRTVCEALRDVRGNRMSVAAIEMAVWDWYAARTGQPLVGLLGGGRDRVEVSATLGMSESLDVLIQSVDAAVEQGFRRVKLKIAPGRDRAAIKAVRLRYPDLAIAADANGSYRPEDAPVLRQLDAYDLQFIEQPLPEDDWFDLAKLQASLRTPVCLDESVRSVRELKLTARLGAARVLNVKPGRLGGFGATLRALDVAGEAGMAAWVGGMYETGVGRVHGLIAAALPLMRYATDLGPSDRYFEQDVLKEPIAFVEPGVIQVPQCAGVADWVDRDAVRRFSTATWSVDLRTLEGHHHHHH	soluble
MSLRDISILLAEDESELRELLHEYLQLFFGRVYAATSGDQAYDIYKQKKPDIIITDISMPNLDGLEMISKIRESDKETKIIVMSAHSEQERLLLAIKLNLESYLIKPIKTEALKTILLDIVKHLREKSRRTYVTENIYWEHETNTLWGNSKEIKLRKMESMLLKLLFSRPNEIFSTKEIFDYLHETKNDKEFSVHAVTSLMKRLRAKLPNEVIHNIYGSGYKIIPIEGHHHHHH	soluble
MSLRIVFKIGSNLLETDEGDIDLSFLSKLAEGIKKLHSFGDKVLIVSSGAVLSGAKKLGIKEKPKDLTLKQALASVGQSYLMHLYDTIFSNYGLKVGQVLLTKDVFSKEKEERFKNAKSTLEKLLELGVVPVINENDAVAVEELVFGDNDFLAVYVSFMVNADLLVIFSSAGGLKDDKDRIIPVVEDIEKVFKYVRGTGTSFGTGGMRSKLEATRLATTLNIPVIITSKEENILDLRNLKTKGTLFKPSKRKLRNALKVIATLEEPKGIIVVDRGAQEALKAGKSLLPAGVVSVQGNFKRGDVVSIQNEEGLIIGKGKVNFSSEEIEKIKGLKTSEVRKLLNTTKDEVIHRDNMVIFLEGHHHHHH	not soluble
